The target of data set [1] is T1, CspC (C-terminal His-tagged) (Staphylococcus aureus Newman, UniProt O33592 1-66). Nature of the data set: EMSA. Background: Mobility shift assays separate free from complexed probe on a gel.
For data set [2], the target named is T1, CspC (C-terminal His-tagged). Nature of the data set: EMSA. The source holds these as a separate data set.

Read-outs that look alike come from different tables or passages of the source.

On to AAGTGTATAATGAAAG (ssDNA) [ssDNA3], for which, in data set [1], the binding result was “no binding”. In the case of GTCGACTTTTTTTTTTTTTTTTTTTT (ssDNA) [ssDNA1], the binding result in data set [2] was “binds”.

Values taken from article PMC6532764.
